Data as given in PMC10786891, “Massively parallel profiling of RNA-targeting CRISPR-Cas13d”.

Molecular target: T1, EsCas13d, nuclease-dead (Eubacterium siraeum, UniProt B0MS50, R295A;H300A;R849A;H854A)
T1 sequence: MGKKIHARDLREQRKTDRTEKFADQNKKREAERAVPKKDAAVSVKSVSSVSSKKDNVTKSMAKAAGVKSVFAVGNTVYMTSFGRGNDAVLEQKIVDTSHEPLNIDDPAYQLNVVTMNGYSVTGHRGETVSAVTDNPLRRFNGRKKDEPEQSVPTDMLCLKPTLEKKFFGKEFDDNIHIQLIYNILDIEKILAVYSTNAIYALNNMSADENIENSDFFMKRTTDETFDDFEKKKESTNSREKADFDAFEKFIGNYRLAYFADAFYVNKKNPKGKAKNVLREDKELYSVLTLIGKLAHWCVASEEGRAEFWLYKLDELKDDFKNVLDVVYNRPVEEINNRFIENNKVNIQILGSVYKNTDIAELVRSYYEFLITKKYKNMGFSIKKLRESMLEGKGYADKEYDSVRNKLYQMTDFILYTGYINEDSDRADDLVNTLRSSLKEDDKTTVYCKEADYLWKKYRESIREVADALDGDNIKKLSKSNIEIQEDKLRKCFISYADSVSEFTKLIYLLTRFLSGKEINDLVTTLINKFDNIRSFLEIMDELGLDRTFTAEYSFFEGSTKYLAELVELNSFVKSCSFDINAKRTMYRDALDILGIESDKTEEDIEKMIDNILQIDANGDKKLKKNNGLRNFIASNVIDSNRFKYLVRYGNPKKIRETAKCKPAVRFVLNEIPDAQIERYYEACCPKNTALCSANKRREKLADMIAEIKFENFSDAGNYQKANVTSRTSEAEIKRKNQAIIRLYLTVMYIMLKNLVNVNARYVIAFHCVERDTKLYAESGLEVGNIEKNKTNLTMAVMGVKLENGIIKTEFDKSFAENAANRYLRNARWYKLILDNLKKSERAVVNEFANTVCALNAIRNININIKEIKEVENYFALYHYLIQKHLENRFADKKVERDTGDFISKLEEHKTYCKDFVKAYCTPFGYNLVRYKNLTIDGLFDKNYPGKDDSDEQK
Test: crRNA (strand 1, pre-loaded); Mg2+; 40 mM Tris-HCl pH 7.5, 150 mM NaCl, 6 mM MgCl2, 1 mM DTT, 0.1% Tween-20, 0.2 mg/ml BSA; 25 C; 10 min per concentration, then washed
Settings: tags: His6-TwinStrep-SUMO cleaved; N-terminal SNAP kept (SNAP-Surface 488); label: 3' end held by stalled T7 RNA polymerase

B1: target 1 insA 3' of 7,insG 3' of 1 (mixed)
RNA 1: CACCCGUGCAAAAAUGCAGGGGUCUAAAACUGAGCGGAUAACCUCUCUAUGG
RNA 2: GGGAAUGGAUCCACAUCUACGAAUUCGUACCAUAGAGAGGUUAUCACGCUCAGCCGAGAUCGGAAGAGCACACGU
  Kd: 6.8 ± 0.4 nM

B2: target 1 insC 3' of 20,insU 3' of 6 (mixed)
RNA 1: CACCCGUGCAAAAAUGCAGGGGUCUAAAACUGAGCGGAUAACCUCUCUAUGG
RNA 2: GGGAAUGGAUCCACAUCUACGAAUUCGUACCACUAGAGAGGUUAUCCUGCUCACCGAGAUCGGAAGAGCACACGU
  Kd: 11.3 ± 0.9 nM

B3: target 1 A1G,A18C (mixed)
RNA 1: CACCCGUGCAAAAAUGCAGGGGUCUAAAACUGAGCGGAUAACCUCUCUAUGG
RNA 2: GGGAAUGGAUCCACAUCUACGAAUUCGUACCAUCGAGAGGUUAUCCGCUCGCCGAGAUCGGAAGAGCACACGU
  Kd: 62 ± 8 nM

B4: target 1 C6G,A18C (mixed)
RNA 1: CACCCGUGCAAAAAUGCAGGGGUCUAAAACUGAGCGGAUAACCUCUCUAUGG
RNA 2: GGGAAUGGAUCCACAUCUACGAAUUCGUACCAUCGAGAGGUUAUCGGCUCACCGAGAUCGGAAGAGCACACGU
  Kd: 62 ± 8 nM

B5: target 1 C2A,G17A (mixed)
RNA 1: CACCCGUGCAAAAAUGCAGGGGUCUAAAACUGAGCGGAUAACCUCUCUAUGG
RNA 2: GGGAAUGGAUCCACAUCUACGAAUUCGUACCAUAAAGAGGUUAUCCGCUAACCGAGAUCGGAAGAGCACACGU
  Kd: 47 ± 6 nM

B6: target 1 A18C (mixed)
RNA 1: CACCCGUGCAAAAAUGCAGGGGUCUAAAACUGAGCGGAUAACCUCUCUAUGG
RNA 2: GGGAAUGGAUCCACAUCUACGAAUUCGUACCAUCGAGAGGUUAUCCGCUCACCGAGAUCGGAAGAGCACACGU
  Kd: 51.3 ± 3.5 nM

B7: target 1 C7G,A16G (mixed)
RNA 1: CACCCGUGCAAAAAUGCAGGGGUCUAAAACUGAGCGGAUAACCUCUCUAUGG
RNA 2: GGGAAUGGAUCCACAUCUACGAAUUCGUACCAUAGGGAGGUUAUGCGCUCACCGAGAUCGGAAGAGCACACGU
  Kd: 34 ± 4 nM

B8: target 1 insU 3' of 17,insU 3' of 1 (mixed)
RNA 1: CACCCGUGCAAAAAUGCAGGGGUCUAAAACUGAGCGGAUAACCUCUCUAUGG
RNA 2: GGGAAUGGAUCCACAUCUACGAAUUCGUACCAUAGUAGAGGUUAUCCGCUCAUCCGAGAUCGGAAGAGCACACGU
  Kd: 22.4 ± 2.3 nM

B9: target 1 A1C,A20C (mixed)
RNA 1: CACCCGUGCAAAAAUGCAGGGGUCUAAAACUGAGCGGAUAACCUCUCUAUGG
RNA 2: GGGAAUGGAUCCACAUCUACGAAUUCGUACCCUAGAGAGGUUAUCCGCUCCCCGAGAUCGGAAGAGCACACGU
  Kd: 32 ± 4 nM

B10: target 1 C4U,G5U (mixed)
RNA 1: CACCCGUGCAAAAAUGCAGGGGUCUAAAACUGAGCGGAUAACCUCUCUAUGG
RNA 2: GGGAAUGGAUCCACAUCUACGAAUUCGUACCAUAGAGAGGUUAUCCUUUCACCGAGAUCGGAAGAGCACACGU
  Kd: 49 ± 4 nM

B11: target 1 C4G,A16C (mixed)
RNA 1: CACCCGUGCAAAAAUGCAGGGGUCUAAAACUGAGCGGAUAACCUCUCUAUGG
RNA 2: GGGAAUGGAUCCACAUCUACGAAUUCGUACCAUAGCGAGGUUAUCCGGUCACCGAGAUCGGAAGAGCACACGU
  Kd: 39 ± 5 nM

B12: target 1 insU 3' of 6,insU 3' of 4 (mixed)
RNA 1: CACCCGUGCAAAAAUGCAGGGGUCUAAAACUGAGCGGAUAACCUCUCUAUGG
RNA 2: GGGAAUGGAUCCACAUCUACGAAUUCGUACCAUAGAGAGGUUAUCCUGCUUCACCGAGAUCGGAAGAGCACACGU
  Kd: 10.3 ± 0.8 nM

B13: target 1 A1U,A18C (mixed)
RNA 1: CACCCGUGCAAAAAUGCAGGGGUCUAAAACUGAGCGGAUAACCUCUCUAUGG
RNA 2: GGGAAUGGAUCCACAUCUACGAAUUCGUACCAUCGAGAGGUUAUCCGCUCUCCGAGAUCGGAAGAGCACACGU
  Kd: 66 ± 12 nM

B14: target 1 A1C,A18C (mixed)
RNA 1: CACCCGUGCAAAAAUGCAGGGGUCUAAAACUGAGCGGAUAACCUCUCUAUGG
RNA 2: GGGAAUGGAUCCACAUCUACGAAUUCGUACCAUCGAGAGGUUAUCCGCUCCCCGAGAUCGGAAGAGCACACGU
  Kd: 75 ± 29 nM

B15: target 1 insU 3' of 13,insG 3' of 4 (mixed)
RNA 1: CACCCGUGCAAAAAUGCAGGGGUCUAAAACUGAGCGGAUAACCUCUCUAUGG
RNA 2: GGGAAUGGAUCCACAUCUACGAAUUCGUACCAUAGAGAGUGUUAUCCGCGUCACCGAGAUCGGAAGAGCACACGU
  Kd: 14.2 ± 2 nM

B16: target 1 insC 3' of 10,insC 3' of 9 (mixed)
RNA 1: CACCCGUGCAAAAAUGCAGGGGUCUAAAACUGAGCGGAUAACCUCUCUAUGG
RNA 2: GGGAAUGGAUCCACAUCUACGAAUUCGUACCAUAGAGAGGUUCACUCCGCUCACCGAGAUCGGAAGAGCACACGU
  Kd: 14.9 ± 0.6 nM

B17: target 1 insC 3' of 10,insG 3' of 2 (mixed)
RNA 1: CACCCGUGCAAAAAUGCAGGGGUCUAAAACUGAGCGGAUAACCUCUCUAUGG
RNA 2: GGGAAUGGAUCCACAUCUACGAAUUCGUACCAUAGAGAGGUUCAUCCGCUCGACCGAGAUCGGAAGAGCACACGU
  Kd: 24.8 ± 2.1 nM

B18: target 1 A14C,G15A (mixed)
RNA 1: CACCCGUGCAAAAAUGCAGGGGUCUAAAACUGAGCGGAUAACCUCUCUAUGG
RNA 2: GGGAAUGGAUCCACAUCUACGAAUUCGUACCAUAGAACGGUUAUCCGCUCACCGAGAUCGGAAGAGCACACGU
  Kd: 32 ± 2.8 nM

B19: target 1 U3A,U10A (mixed)
RNA 1: CACCCGUGCAAAAAUGCAGGGGUCUAAAACUGAGCGGAUAACCUCUCUAUGG
RNA 2: GGGAAUGGAUCCACAUCUACGAAUUCGUACCAUAGAGAGGUAAUCCGCACACCGAGAUCGGAAGAGCACACGU
  Kd: 21.2 ± 2.5 nM

B20: target 1 C6A,A9G (mixed)
RNA 1: CACCCGUGCAAAAAUGCAGGGGUCUAAAACUGAGCGGAUAACCUCUCUAUGG
RNA 2: GGGAAUGGAUCCACAUCUACGAAUUCGUACCAUAGAGAGGUUGUCAGCUCACCGAGAUCGGAAGAGCACACGU
  Kd: 11.5 ± 0.6 nM

B21: target 1 A16G,C21U (mixed)
RNA 1: CACCCGUGCAAAAAUGCAGGGGUCUAAAACUGAGCGGAUAACCUCUCUAUGG
RNA 2: GGGAAUGGAUCCACAUCUACGAAUUCGUACUAUAGGGAGGUUAUCCGCUCACCGAGAUCGGAAGAGCACACGU
  Kd: 7.65 ± 0.33 nM

B22: target 1 insU 3' of 13,insC 3' of 8 (mixed)
RNA 1: CACCCGUGCAAAAAUGCAGGGGUCUAAAACUGAGCGGAUAACCUCUCUAUGG
RNA 2: GGGAAUGGAUCCACAUCUACGAAUUCGUACCAUAGAGAGUGUUAUCCCGCUCACCGAGAUCGGAAGAGCACACGU
  Kd: 14.7 ± 1.6 nM

B23: target 1 C7G,U10G (mixed)
RNA 1: CACCCGUGCAAAAAUGCAGGGGUCUAAAACUGAGCGGAUAACCUCUCUAUGG
RNA 2: GGGAAUGGAUCCACAUCUACGAAUUCGUACCAUAGAGAGGUGAUGCGCUCACCGAGAUCGGAAGAGCACACGU
  Kd: 20 ± 0.8 nM

B24: target 1 insU 3' of 18,insU 3' of 17 (mixed)
RNA 1: CACCCGUGCAAAAAUGCAGGGGUCUAAAACUGAGCGGAUAACCUCUCUAUGG
RNA 2: GGGAAUGGAUCCACAUCUACGAAUUCGUACCAUAUGUAGAGGUUAUCCGCUCACCGAGAUCGGAAGAGCACACGU
  Kd: 47 ± 8 nM
